Data: PMC8274607, “A Derivative of the D5 Monoclonal Antibody That Targets the gp41 N-Heptad Repeat of HIV-1 with Broad Tier-2-Neutralizing Activity” (Journal of Virology, 2021)

Target: T1, covalent biotinylated CCIZN17 (synthetic IZ coiled coil fused to HIV-1 …)
T1 construct: also called NHR mimetic; mimetic of the NHR trimer
Assay: BLI; biotinylated CCIZN17 (200 nM) loaded on streptavidin biosensors to 0.4 nm, Octet RED96; Fab in solution at known concentrations, 4 min association, 4 min dissociation; PBS pH 7.4 with 0.1% BSA and 0.05% Tween 20
Conditions: both partners purified

B1: D5_AR Fab (Fab, V domains shown)
VH: QVQLVQSGAEVRKPGASVKVSCKASGDTFSSYAISWVRQAPGQGLEWMGSIIPLFGTAAYAQKFQGRVTITADESTSTAYMELSSLRSEDTAIYYCARDNPTFGAADSWGKGTLVTVSS
VL: DIQMTQSPSTLSASIGDRVTITCRASEGIYHWLAWYQQKPGKAPKLLIYKASSLASGAPSRFSGSGSGTDFTLTISSLQPDDFATYYCQQYSNYPLTFGGGTKLEIK
notes: also called D5_H011_L0; source: Expi293F, transfected, purified (protein G agarose, SEC)
**Q.** For B1, which Kd is on record?
**A.** 1.6 nM
